Common to all, as to assay: HPLC product assay, Michaelis-Menten fit
What all share (format): biochemical, Citrus maxima

Substrate in data set [1]: COc1ccc(-c2cc(=O)c3c(O)cc(O)cc3o2)cc1O
Particulars: 1 mM UDP-glucose, 50 mM PBS pH 7.0, 35 °C.

Substrate in data set [2]: O=C1C[C@@H](c2ccc(O)cc2)Oc2cc(O)cc(O)c21
Particulars: 1 mM UDP-glucose.

Substrate in data set [3]: O=c1c(O)c(-c2ccc(O)cc2)oc2cc(O)cc(O)c12
As to conditions: 1 mM UDP-glucose.

Substrate in data set [4]: COc1ccc([C@@H]2CC(=O)c3c(O)cc(O)cc3O2)cc1O
Particulars: 1 mM UDP-glucose.

Substrate in data set [5]: COc1ccc(-c2cc(=O)c3c(O)cc(O)cc3o2)cc1O
As to conditions: 1 mM UDP-glucose, 50 mM PBS pH 7.0, 35 °C. From the text:
(§1) HPLC product assay, Michaelis-Menten fit on CgUGT89AK1
This is another data set of the same source.

Substrate in data set [6]: O=C1C[C@@H](c2ccc(O)cc2)Oc2cc(O)cc(O)c21
As to conditions: 1 mM UDP-glucose, 50 mM PBS pH 7.0, 35 °C.
From the text: as §1

Substrate in data set [7]: O=c1cc(-c2ccc(O)cc2)oc2cc(O)cc(O)c12
Particulars: 1 mM UDP-glucose, 50 mM PBS pH 7.0, 35 °C.
From the text: as §1

Substrate in data set [8]: O=C1C[C@@H](c2ccc(O)c(O)c2)Oc2cc(O)cc(O)c21
Particulars: 1 mM UDP-glucose, 50 mM PBS pH 7.0, 35 °C.
From the text: as §1

Substrate in data set [9]: O=c1c(O)c(-c2ccc(O)c(O)c2)oc2cc(O)cc(O)c12
Particulars: 1 mM UDP-glucose, 50 mM PBS pH 7.0, 35 °C.
From the text: as §1

Substrate in data set [10]: O=c1cc(-c2ccc(O)cc2)oc2cc(O)cc(O)c12
Particulars: 1 mM UDP-glucose.

B1: CgUGT90A31 (Citrus maxima) (protein)
chain: MGSISSDHHVVLFPFMSKGHIIPILNLVQLLLRRPRVTVTVFTTPANRPFTSKFLSNSSTAACSIIDIPYPENVPEIPAGVESTDKLPSMSLYVPFTRATKLMQPHFERALESLPRVSFMVSDGFLWWTLDSANKFGFPRLVFYGMNNYAMSVSRSVGQNRLLSGVQSDDELLTLPEFPWIKITKKDFDSPITDPEPKGPHFELFIDQIVSTSNSHGMIVNSFYELEPLFADHCNRVGKPKSWCVGPLCLAELPPKNEEPKNELSKPAWIKWLDRKLDEGSSVMYVAFGSQAEISAQQLKEIAIGLEQSKVNFLWVIRTAQSELGDGFEERVKGRGLVVRDWVDQNEILWHGSVQGFLSHCGWNSTLESICAGVPILAWPMMAEQPLNARMVTEEIKVGLRVETCDGSVRGFVKWRGLEKTMRELMGGEKGEKARTKVKELSEIARKAMEEGKGSSWRCLDMLLDETCKLEQHD
For orientation: Km means the substrate concentration at which the rate is half of its maximum. As usually defined, the kcat/Km is the second-order rate constant that governs catalysis at low substrate concentration. For B1, the Km in [1] is 34.93 ± 10.80 µM; in data set [2] (50 mM PBS pH 7.0, 35 °C), 139.04 ± 40.50 µM; in data set [3] (50 mM PBS pH 7.0, 35 °C), 56.20 ± 19.14 µM; in data set [4] (50 mM PBS pH 7.0, 35 °C) it was 179.10 ± 48.24 µM. In addition, the kcat/Km in data set [1] worked out at 15.8 M⁻¹ s⁻¹; in [2] (50 mM PBS pH 7.0, 35 °C) it was 52 M⁻¹ s⁻¹; in data set [3] (50 mM PBS pH 7.0, 35 °C), 6.48 M⁻¹ s⁻¹; in [4] (50 mM PBS pH 7.0, 35 °C), 51.4 M⁻¹ s⁻¹.

B2: CgUGT89AK1 (Citrus maxima) (protein)
chain: MLPAGAHILVYPFPTSGHIIPLLDLTNRLLTLGLNVTVLITQNNLPLLDSLNANHPSTSLQSLVLPQPKWPAGSPATRLLKFMRVLRELHYPALLDWFKSHPSPPVAILSDFFLGWTQGLAAELGLPRVVFSPSGAFALSVSFAMWTDLPTNDDPDNVDALVSFPRVPNCPVYHWYQISHLYRTLKEGDPDWDLHRSNMMANKTSWGIVFNSFAELERVYIDHMKKEMGHDRVWAVGPVLPPDDDLVESMCRGGSSSVPAHDVLTWLDSRRDESVVYVCFGSRYVLTAKQIHELAAALEKTDVDFVYCVREPDERHASQDCGVLPDGFEDRVAGRGYVIRGWSQQVAILRHKAVGAFLTHCGWNSVLEGVSAGVVMLTWPMDADQYTNAQLLVDQLGVGIRVGEGTRNIPESGELARLLAQSVDGPRRERLKARELSGAALSAVVKGGSSDRDLNDFIKRINELKSGKNLTAV
Consider B2, for which the Km came to 6.16 ± 2.64 µM in [5]; 52.88 ± 17.30 µM in data set [6]; 24.37 ± 5.03 µM in data set [7]; 26.25 ± 5.65 µM in data set [8]; 19.44 ± 11.00 µM in [9]. For the same protein, the kcat/Km in data set [5] was 284 M⁻¹ s⁻¹; in [6] it was 48.3 M⁻¹ s⁻¹; in data set [7], 107 M⁻¹ s⁻¹; in data set [8], 154 M⁻¹ s⁻¹; in data set [9], 1350 M⁻¹ s⁻¹.

B3: CgUGT89D30 (Citrus maxima) (protein)
chain: MSSSNTRTTHILIFPYPAQGHMLPLLDLTHQLSLKDLDITILVTPKNLPILSPLLDAHPAIKTLVLPFPSHPSIPPGIENVRELGNRGNYPIMTALGKLYGPIIDWFRSQANPPVAILSDFFLGWTLKLAHQLNIVRIAFFSSGWLLASVVDYCWHHIGDVKSLDVVEFPDLPRYPVFKRRHLPSMVRSYKESDPESQFVKDGNLANTSSWGCVFNSFDALEGEYSDYLKRKMGHDRVFGVGPLSLVGLESTGGGDPGLGPNDHVTKWLDGCPDGSVVYVCFGSQKALKRDQMEALASGLEKSGIRFLWVVKTGMIGKGDDGYGSMPDGFEEQVAGRGLVLKGWAPQVSILSHKAVGGFLSHCGWNSLLEGIVGGAMILAWPMEADQFVNAKLLVEDLGVAVQVCEGADSVPDSDELGNIIAESLSQRDEVKIKAKELRDDALAAVKSDGSSARDLDRLVEELRNLHAK
Take B3: the Km is 79.57 ± 5.51 µM in data set [2] (50 mM PBS pH 7.0, 30 °C); 35.76 ± 18.07 µM in data set [3] (50 mM PBS pH 7.0, 30 °C); 17.34 ± 10.85 µM in data set [10] (50 mM PBS pH 7.0, 30 °C); 207.41 ± 77.33 µM in data set [4] (50 mM PBS pH 7.0, 30 °C). The kcat/Km in data set [2] (50 mM PBS pH 7.0, 30 °C) came to 18.1 M⁻¹ s⁻¹; in data set [3] (50 mM PBS pH 7.0, 30 °C) it was 21.9 M⁻¹ s⁻¹; in data set [10] (50 mM PBS pH 7.0, 30 °C), 88.2 M⁻¹ s⁻¹; in data set [4] (50 mM PBS pH 7.0, 30 °C), 11 M⁻¹ s⁻¹.

B4: CgUGT73AC12 (Citrus maxima) (protein)
chain: MDSKSSPVEMFFFPYVGGGHQIPMVDIARIFAAHGAKSTIITSPKHALSFQKSINRNQQSGLPITIKTLHLPDDIEIPDTDMSATPRTDTSMLQKPLKSLLLDSRPDCIVHDMFHHWSADVINSMNIPRIVFNGNCCFSRCVLENVRKYKPHEKVSSDYEPFVVPGLPDKIELTSSQLPVGARQQEAGSVHKMFAKPEEKSFGIVVNSFYDLEPAYVEYFKQDLGNDKAWFVGPVSLCNRNIEDKAERGQKTSIDEGKILSFLDSKETNSVLYISFGSLARLAPEQLLEIAYGLEASNHSFIWVVGKIFQSPGTRKENGIEENWLPSGFEERMRESKRGLIIRGWAPQLLILEHAAVGGFMTHCGWNSTLESVSAGVPMVTWPITAEQFSNEKLISDVLKIGVKVGSVNWVSWSTEPSAAVGRDKVEVAVKRLMGTGEEAAEMRRRAGELGEKAKNAVEEGGSSFIDAEALLQELKSLSRI
As for B4, the Km in data set [2] (50 mM PBS pH 7.0, 35 °C) turned out to be 105.34 ± 35.62 µM; in data set [3] (50 mM PBS pH 7.0, 35 °C), 92.58 ± 55.02 µM; in [10] (50 mM PBS pH 7.0, 35 °C), 153.66 ± 62.17 µM; in data set [4] (50 mM PBS pH 7.0, 35 °C), 169.68 ± 54.77 µM. Besides, the kcat/Km in data set [2] (50 mM PBS pH 7.0, 35 °C) worked out at 6.36 M⁻¹ s⁻¹; in data set [3] (50 mM PBS pH 7.0, 35 °C) it was 11 M⁻¹ s⁻¹; in [10] (50 mM PBS pH 7.0, 35 °C), 5.93 M⁻¹ s⁻¹; in data set [4] (50 mM PBS pH 7.0, 35 °C), 5.62 M⁻¹ s⁻¹.

Source of the values: publication PMC11165160, “Four novel Cit7GlcTs functional in flavonoid 7-O-glucoside biosynthesis are vital to flavonoid biosynthesis shunting in citrus” (Horticulture Research, 2024).
